We go through one molecule from patent US20140121131A1 (AFFINITY BIOSCIENCES, published 2014).

For assay [1], the target named is T1, biotinylated His6-GFP (UniProt P42212 1-238 = GFP).
T1 construct: Held on streptavidin magnetic particles or Dynal beads; also called biotinylated eGFP; Biotin-labeled eGFP; not shown: His6 tag
Put plainly: phage capture on streptavidin Dynal beads labelled with biotinylated His6-GFP; fusion protein not induced; reference is Hy5 phage with wild-type gpL.

The target of assay [2] is T1, biotinylated His6-GFP. The assay can be described thus: phage capture on streptavidin Dynal beads labelled with biotinylated His6-GFP; fusion protein induced with arabinose; reference is Hy5 phage with wild-type gpL.

B1: αGFP::I27::gpL fusion protein (VHH)
chain: MGDGMQVQLVESGGALVQPGGSLRLSCAASGFPVNRYSMRWYRQAPGKEREWVAGMSSAGDRSSYEDSVKGRFTISRDDARNTVYLQMNSLKPEDTAVYYSNVNVGFEYWGQGTQVTVSSNSSSQTSLIEVEKPLYGVEVFVGETAHFEIELSEPDVHGQWKLKGQPLTASPDCEIIEDGKKHILILHNCQLGMTGEVSFQAANAKSAANLKVKELNSSSDYKDDDDKGNGTLIIPRKEAPVSGEGTVVIPQPAGDEPVIKNTFFFPDIDPKRVRERMRLEQTVAPARLREAIKSGMAETNAELYEYREQKIAAGFTRLADVPADDIDGESIKVFYYERAVCAMATASLYERYRGVDASAKGDKKADSIDSTIDELWRDMRWAVARIQGKPRCIVSQI
notes: also called Hy5 + αGFP:I27:gpL; gpL capsid fusion protein
As to B1, the “Enrichment (fold over Hy5)” value was 6.5 fold over Hy5 with biotinylated His6-GFP [1] and 82 fold over Hy5 in the assay with biotinylated His6-GFP [2].
